Experiment [1] has as its target S100A4 (metastasin), wild type (UniProt P26447). The experiment can be described thus: fluorescence polarisation; competitive FP; 50 nM Fl-NMIIA complexed with 4 μM S100A4 dimer titrated with ezrin constructs; competition binding equation; triplicates. A general note: Polarisation of emitted light reports the rotation of a fluorescent probe.
The target is the same in experiment [2]. The description is as above. This is another data set of the same source.
Experiment [3] concerns the target S100A4-Δ9 (S100A4 C-terminally truncated by 9 residues) (UniProt P26447). The experiment can be described thus: NMR titration; unlabeled C-ERMAD (7.5 mM stock) added gradually to 15N-labeled S100A4-Δ9 dimer (250 μM) up to 2.1:1; 1H-15N HSQC, 700 MHz, 300 K; 20 mM MES pH 6.0, 150 mM NaCl, 10 mM CaCl2, 5 mM TCEP; ten shifting peaks fitted to a quadratic binding equation.

For experiment [4], the target named is Fl-C-ERMAD^516–560 (fluorescently labeled, Cys-Lys516-Leu560) (human). The experiment can be described thus: fluorescence polarisation; direct FP; 50 nM fluorescent tracer (Fl-C-ERMAD variants or Fl-NMIIA) titrated with S100 proteins or N-ERMAD; 20 mM HEPES pH 7.5, 150 mM NaCl, 0.1 mM TCEP, 1 mM CaCl2, 0.05% Tween-20; triplicates; quadratic binding equation.

pKd: −log10 of the molar value. Read-outs that look alike come from different tables or passages of the source.

Sequence of S100A4 (metastasin), wild type (UniProt P26447) (P26447 whole entry): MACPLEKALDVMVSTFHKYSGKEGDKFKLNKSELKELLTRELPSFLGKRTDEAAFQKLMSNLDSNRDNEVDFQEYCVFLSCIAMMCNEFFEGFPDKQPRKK
Sequence of S100A4 (metastasin), wild type (from UniProt P26447 1-101) (natural protein) (P26447 whole entry): as above
Sequence of Ezrin C-ERMAD (Cys-Lys516-Leu586), unlabeled (P15311 other isoform, or with tags, fused parts or gaps): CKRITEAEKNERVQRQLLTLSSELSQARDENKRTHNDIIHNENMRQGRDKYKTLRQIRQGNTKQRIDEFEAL

Consider “Ezrin C-ERMAD^516–560 (Cys-Lys516-Leu560), unlabeled (domain or fragment)”, for which the pKd (commonly the negative decadic logarithm of the Kd, by convention in mol/L) in experiment [1] was 4.54; in experiment [2], 4.56.

“Ezrin C-ERMAD (Cys-Lys516-Leu586), unlabeled (from UniProt P15311 516-586) (domain or fragment)”: the pKd in experiment [3] is 4.97.

For “S100A4 (metastasin), wild type (from UniProt P26447 1-101) (natural protein)”, the pKd in experiment [4] is 5.08.

These data come from publication PMC5426754.
